{"source": "patent US8058396B2", "about": "“Cystatin C as an antagonist of TGF-β and methods related thereto” (National Jewish Health, priority 2003, dated 2011)", "key": {"[1]": {"test_system": "3T3-L1 fibroblasts", "assay": "3T3-L1 cell invasion through Matrigel matrices", "assay_type": "cell-based, murine", "settings": "retroviral expression in 3T3-L1 cells, 48 hr; for serum-stimulated (tonic) 3T3-L1 cell invasion: relative to GFP-expressing cells; for TGF-β1-stimulated 3T3-L1 cell invasion: TGF-β1 5 ng/ml, p<0.05", "method": "The effect CystC and D14CystC on the invasion of HT1080 and 3T3-L1 cells was determined as described previously (42). Briefly, upper chambers were coated with 100 μl of diluted Matrigel (1:50 in serum-free media), which was allowed to evaporate to dryness overnight at room temperature. The following morning the Matrigel mixtures were rehydrated and subsequently cultured with control-, CystC-, or D14CystC-expressing HT1080 or 3T3-L1 cells at a density of 100,000 cells/chamber. Cellular invasion was stimulated by addition of 2% serum to the lower chambers. Forty-eight hr later, the cells were washed twice in ice-cold PBS and immediately fixed for 15 min with 95% ethanol. Cells remaining in the upper chambers were removed with a cotton swab, whereas those remaining in the lower chamber were stained with crystal violet. Quantifying invading cells was determined through two independent measures, which yielded identical results: (i) manual counting under a light microscope, and (ii) crystal violet dye extraction by incubation of the membranes in 10% acetic acid, followed by spectrophotometry at 590 nm.\nIn some experiments, the effects of recombinant CystC and D14CystC on 3T3-L1 cell invasion was examined. To do so, 3T3-L1 cells (100,000 cells/chamber) were allowed to invade through Matrigel […], together with or without 5 ng/ml of TGF-β1. All subsequent procedures were performed as described above.\nGFP-, CystC-, or Δ14CystC-expressing 3T3-L1 cells were allowed to invade through Matrigel-coated filters in the absence or presence of TGF-β1 (5 ng/ml) for 48 hr, and the results are shown in FIG. 2A. […] Data are the mean (±SE) of four independent experiments presented as the percent invasion relative to GFP-expressing 3T3-L1 cells.\nMoreover, the inhibitory effects of CystC on 3T3-L1 cell invasion could be recapitulated by addition of recombinant CystC fusion proteins. Control or TGF-β1-stimulated (5 ng/ml) 3T3-L1 cells were allowed to invade through Matrigel-coated filters for 48 hr in the absence or presence of recombinant (10 mg/ml) GST, GST-CystC, or GST-D14CystC as indicated in FIG. 2B. […] Data are the mean (±SE) of three independent experiments presented as the percent invasion relative to untreated 3T3-L1 cells. […] Collectively, these findings indicate that 3T3-L1 cell invasion proceeds through cathepsin B-dependent and TGF-β-dependent pathways."}, "[2]": {"test_system": "3T3-L1 cells", "assay": "Migration of 3T3-L1 cells to fibronectin", "assay_type": "cell-based, murine", "settings": "data not shown"}, "[3]": {"test_system": "NMuMG mammary epithelial cells", "assay": "TGF-β-mediated downregulation of E-cadherin in NMuMG cells", "assay_type": "cell-based, murine", "settings": "overexpression in NMuMG cells; TGF-β1 5 ng/ml, 36 hours", "method": "The ability of TGF-β to alter actin cytoskeletal architecture and E-cadherin expression was monitored essentially as described (Piek et al., 1999). Briefly, control-, CystC-, or Δ14CystC-expressing NMuMG cells were allowed to adhere overnight to glass coverslips in 24-well plates (50,000 cells/well). The cells were stimulated the following day with TGF-β1 (5 ng/ml) for 0-36 hours at 37° C. In some experiments, control NMuMG cells were stimulated with TGF-β1 in the absence or presence of 10 μg/ml of recombinant GST, GST-CystC, or GST-Δ14CystC. Upon completion of agonist stimulation, the cells were washed in ice-cold PBS and immediately fixed in 3.7% formaldehyde. After extensive washing in PBS, the cells were blocked in PBS supplemented with 1.5% FBS, followed by incubation with rhodamine-phalloidin (0.25 μM). […]\nThe ability of TGF-β to alter E-cadherin expression also was monitored by immunoprecipitating E-cadherin from Buffer H/1% Triton X-100-solubilized (Schiemann et al., 2003) NMuMG whole cell extracts, followed by immunoblotting with anti-E-cadherin antibodies (1:1000 dilution).\nTo test this hypothesis, the inventor first examined whether CystC and a CystC mutant impaired in its ability to inhibit cathepsin protease activity (i.e., Δ14CystC) could antagonize TGF-β stimulation of EMT in MECs. […] TGF-β stimulation of EMT is studied routinely in murine NMuMG MECs, which readily undergo EMT when treated with TGF-β (Piek et al., 1999; Miettinen et al., 1994; Gotzmann et al., 2004). […] E-cadherin expression was monitored by indirect immunofluorescence with anti-E-cadherin antibodies.\nIn another experiment, NMuMG cells were infected with ecotropic retrovirus encoding either GFP (i.e., control), CystC, or Δ14CystC, and subsequently were isolated by FACS-sorting for GFP expression to yield stable polyclonal populations of control, CystC, and Δ14CystC-expressing cells. The expression and secretion of recombinant CystC proteins by infected NMuMG and NRK cells was monitored by immunoblotting conditioned-media with anti-CystC antibodies. […]"}, "[4]": {"test_system": "3T3-L1 cells", "assay": "DNA synthesis in 3T3-L1 cells", "assay_type": "cell-based, murine", "settings": "data not shown"}, "[5]": {"biological_target": "TGF-β1 (Homo sapiens, UniProt P01137)", "sequence (P01137 279-390 limits assumed, species assumed)": "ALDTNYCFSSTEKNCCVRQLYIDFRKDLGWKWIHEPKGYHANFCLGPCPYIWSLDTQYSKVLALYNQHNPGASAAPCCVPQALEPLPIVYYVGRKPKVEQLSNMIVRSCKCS", "assay": "Co-immunoprecipitation and affinity pull-down of CystC with TGF-β1", "assay_type": "binding", "settings": "data not shown"}, "[6]": {"biological_target": "cathepsin B (Homo sapiens, UniProt P07858)", "settings": "mutant lacks the cysteine inhibitor motif; reference 23; cited from earlier work"}}, "data": [{"molecule": "CystC: full-length human Cystatin C (SEQ ID NO:2), C-terminally Myc- and (His)6-tagged, retrovirally expressed and secreted by the cells (protein, listed as Homo sapiens, C-terminal Myc and His6 tags) MAGPLRAPLLLLAILAVALAVSPAAGSSPGKPPRLVGGPMDASVEEEGVRRALDFAVGEYNKASNDMYHSRALQVVRARKQIVAGVNYFLDVELGRTTCTKTQPNLDNCPFHDQPHLKRKAFCSFQIYAVPWQGTMTLSKSTCQDA", "values": [{"measurement": "serum-stimulated (tonic) 3T3-L1 cell invasion", "setting": "[1]", "result": "inhibited significantly"}, {"measurement": "TGF-β1-stimulated 3T3-L1 cell invasion", "setting": "[1]", "result": "significantly inhibited"}, {"measurement": "3T3-L1 cell migration to fibronectin", "setting": "[2]", "result": "failed to effect"}, {"measurement": "TGF-β-mediated downregulation of E-cadherin", "setting": "[3]", "result": "antagonized"}, {"measurement": "3T3-L1 cell DNA synthesis", "setting": "[4]", "result": "failed to effect"}, {"measurement": "direct physical interaction with TGF-β1", "setting": "[5]", "result": "failed to demonstrate a direct physical interaction"}]}, {"molecule": "Δ14CystC: human CystC with deletion of positions 80 to 93 (conserved cysteine proteinase inhibitor motif), retrovirally expressed and secreted (protein, left off: small tags and cut ends) MAGPLRAPLLLLAILAVALAVSPAAGSSPGKPPRLVGGPMDASVEEEGVRRALDFAVGEYNKASNDMYHSRALQVVRARLGRTTCTKTQPNLDNCPFHDQPHLKRKAFCSFQIYAVPWQGTMTLSKSTCQDA", "values": [{"measurement": "serum-stimulated (tonic) 3T3-L1 cell invasion", "setting": "[1]", "result": "unaffected"}, {"measurement": "TGF-β1-stimulated 3T3-L1 cell invasion", "setting": "[1]", "result": "significantly inhibited"}, {"measurement": "TGF-β-mediated downregulation of E-cadherin", "setting": "[3]", "result": "antagonized"}, {"measurement": "inactivation of cathepsin B", "setting": "[6]", "result": "unable to inactivate"}]}]}
